Measured values: the supplement of paper PMC9112550, “Optimization of the antimicrobial peptide Bac7 by deep mutational scanning” (BMC Biology, 2022)

Test system: Escherichia coli TOP10
Assay: shrunken log2 fold change of peptide-encoding DNA abundance (4.5 h post-induction vs induction); higher = less antimicrobial activity (less host growth inhibition)
Conditions: time post-induction: 4.5 h; library: site-saturation at positions 5, 18, 19, 20
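Note: peptides expressed intracellularly from a pBAD plasmid library in pooled LB shake-flask culture, induced with 0.3% L-arabinose, DNA abundance read by NGS, three biological replicates, DESeq2 with apeglm shrinkage.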

Sequence | shrunken log2 fold change
RRIRKRPPRLPRPRPRPQEPPRP | 0.01
RRIRERPPRLPRPRPRPSPHPRP | -0.229
RRIRQRPPRLPRPRPRPVPWPRP | -0.01
RRIRDRPPRLPRPRPRPYWPPRP | -0.547
RRIRARPPRLPRPRPRPYEMPRP | -0.0385
RRIRNRPPRLPRPRPRPRIPPRP | 0.157
RRIRYRPPRLPRPRPRPHIWPRP | -0.272
RRIRTRPPRLPRPRPRPDWMPRP | 0.0121
RRIRDRPPRLPRPRPRPFRHPRP | -0.125
RRIRARPPRLPRPRPRPQMFPRP | -0.046
RRIRSRPPRLPRPRPRPNPWPRP | -0.0604
RRIRYRPPRLPRPRPRPNKSPRP | -0.941
RRIRCRPPRLPRPRPRPTRCPRP | 0.236
RRIRFRPPRLPRPRPRPAEQPRP | 1.16
RRIRKRPPRLPRPRPRPSLAPRP | 0.614
RRIRKRPPRLPRPRPRPAVLPRP | -0.025
RRIRWRPPRLPRPRPRPPVQPRP | 0.952
RRIRERPPRLPRPRPRPEWKPRP | 0.0685
RRIRMRPPRLPRPRPRPHREPRP | 0.104
RRIRARPPRLPRPRPRPEPHPRP | 0.374
RRIRCRPPRLPRPRPRPQMMPRP | -0.346
RRIRVRPPRLPRPRPRPYMPPRP | -0.78
RRIRCRPPRLPRPRPRPILDPRP | -0.122
RRIRFRPPRLPRPRPRPNTYPRP | -0.499
RRIRPRPPRLPRPRPRPKLQPRP | -0.00543

Sequence | shrunken log2 fold change
RRIRQRPPRLPRPRPRPGANPRP | 0.17
RRIRVRPPRLPRPRPRPIPFPRP | 0.0609
RRIRGRPPRLPRPRPRPNRTPRP | -0.0769
RRIRLRPPRLPRPRPRPEGTPRP | 0.241
RRIRKRPPRLPRPRPRPIFIPRP | -0.173
RRIRMRPPRLPRPRPRPEKRPRP | 0.0458
RRIRGRPPRLPRPRPRPIFYPRP | 0.0354
RRIRARPPRLPRPRPRPPNNPRP | 0.0107
RRIRTRPPRLPRPRPRPCITPRP | -0.96
RRIRDRPPRLPRPRPRPDAQPRP | 1.21
RRIRMRPPRLPRPRPRPHGNPRP | -0.184
RRIRCRPPRLPRPRPRPHNSPRP | -0.273
RRIRERPPRLPRPRPRPRNVPRP | -0.00139
RRIRLRPPRLPRPRPRPALKPRP | 0.489
RRIRMRPPRLPRPRPRPAVDPRP | 0.154
RRIRNRPPRLPRPRPRPGTMPRP | 0.0148
RRIRTRPPRLPRPRPRPAHYPRP | -0.227
RRIRMRPPRLPRPRPRPWIFPRP | 0.0735
RRIRLRPPRLPRPRPRPSMEPRP | -0.371
RRIRYRPPRLPRPRPRPPTGPRP | 0.0896
RRIRRRPPRLPRPRPRPTQPPRP | 0.155
RRIRMRPPRLPRPRPRPVRLPRP | 0.116
RRIRNRPPRLPRPRPRPAWIPRP | 0.275
RRIRGRPPRLPRPRPRPDSWPRP | 0.627
RRIRPRPPRLPRPRPRPVEPPRP | 0.352

Sequence | shrunken log2 fold change
RRIRSRPPRLPRPRPRPNIPPRP | -0.492
RRIRTRPPRLPRPRPRPNDKPRP | -0.605
RRIRNRPPRLPRPRPRPLQRPRP | 0.0374
RRIRCRPPRLPRPRPRPNDMPRP | -0.328
RRIRIRPPRLPRPRPRPVKDPRP | -0.00153
RRIRIRPPRLPRPRPRPTFCPRP | -0.02
RRIRYRPPRLPRPRPRPINNPRP | -0.892
RRIRGRPPRLPRPRPRPFFWPRP | 0.499
RRIRVRPPRLPRPRPRPNNMPRP | -0.537
RRIRERPPRLPRPRPRPGTEPRP | -0.049
RRIRPRPPRLPRPRPRPMNGPRP | 0.137
RRIRRRPPRLPRPRPRPSAKPRP | 0.0742
RRIRARPPRLPRPRPRPWKTPRP | -0.0874
RRIRFRPPRLPRPRPRPHLGPRP | 0.0424
RRIRHRPPRLPRPRPRPQWDPRP | -0.0406
RRIRDRPPRLPRPRPRPQYDPRP | -0.0265
RRIRIRPPRLPRPRPRPMHDPRP | -0.152
RRIRYRPPRLPRPRPRPVNWPRP | -0.0321
RRIRFRPPRLPRPRPRPDCEPRP | 0.175
RRIRIRPPRLPRPRPRPGHRPRP | 0.0543
RRIRTRPPRLPRPRPRPMLWPRP | 0.143
RRIRCRPPRLPRPRPRPADVPRP | -0.391
RRIRDRPPRLPRPRPRPLFSPRP | 0.0525
RRIRLRPPRLPRPRPRPSADPRP | 0.07
RRIRCRPPRLPRPRPRPNITPRP | -0.884

Sequence | shrunken log2 fold change
RRIRPRPPRLPRPRPRPVQSPRP | 0.131
RRIRTRPPRLPRPRPRPSCNPRP | -0.768
RRIRPRPPRLPRPRPRPYWFPRP | -0.579
RRIRRRPPRLPRPRPRPSQHPRP | 0.0591
RRIRHRPPRLPRPRPRPSFDPRP | -0.429
RRIRLRPPRLPRPRPRPMHDPRP | -0.134
RRIRTRPPRLPRPRPRPENRPRP | -0.0266
RRIRTRPPRLPRPRPRPWCFPRP | -0.046
RRIRHRPPRLPRPRPRPYCIPRP | -0.21
RRIRPRPPRLPRPRPRPAFWPRP | 0.459
RRIRQRPPRLPRPRPRPPNCPRP | 0.0242
RRIRYRPPRLPRPRPRPLCDPRP | -0.12
RRIRARPPRLPRPRPRPSEFPRP | 0.00109
RRIRPRPPRLPRPRPRPKGHPRP | 0.106
RRIRPRPPRLPRPRPRPCPYPRP | -1.08
RRIRCRPPRLPRPRPRPWDSPRP | -0.36
RRIRVRPPRLPRPRPRPFAWPRP | 0.384
RRIRWRPPRLPRPRPRPHDNPRP | -0.114
RRIRERPPRLPRPRPRPHTYPRP | -0.281
RRIRFRPPRLPRPRPRPKPGPRP | 0.446
RRIRMRPPRLPRPRPRPMCLPRP | 0.292
RRIRSRPPRLPRPRPRPHHTPRP | -0.625
RRIRFRPPRLPRPRPRPPTKPRP | 0.709
RRIRMRPPRLPRPRPRPPARPRP | 1.4
RRIRLRPPRLPRPRPRPRPCPRP | 0.421

Sequence | shrunken log2 fold change
RRIRKRPPRLPRPRPRPTDWPRP | 0.169
RRIRTRPPRLPRPRPRPQNTPRP | -0.622
RRIRCRPPRLPRPRPRPLWKPRP | 0.101
RRIRMRPPRLPRPRPRPPQYPRP | 0.465
RRIRNRPPRLPRPRPRPSDGPRP | 0.0337
RRIRNRPPRLPRPRPRPPTIPRP | 0.244
RRIRYRPPRLPRPRPRPMWPPRP | 0.158
RRIRSRPPRLPRPRPRPEQMPRP | -0.0112
RRIRLRPPRLPRPRPRPVPDPRP | 0.00559
RRIRMRPPRLPRPRPRPVVTPRP | 0.0538
RRIRSRPPRLPRPRPRPYNEPRP | -0.554
RRIRPRPPRLPRPRPRPNYEPRP | -0.442
RRIRCRPPRLPRPRPRPCRAPRP | -0.0671
RRIRNRPPRLPRPRPRPRQGPRP | -0.0662
RRIRSRPPRLPRPRPRPHPLPRP | -0.00402
RRIRTRPPRLPRPRPRPRGFPRP | 0.732
RRIRTRPPRLPRPRPRPCKDPRP | 0.027
RRIRHRPPRLPRPRPRPCFLPRP | -0.0717
RRIRNRPPRLPRPRPRPVVHPRP | -0.165
RRIRHRPPRLPRPRPRPWNLPRP | -0.278
RRIRLRPPRLPRPRPRPNWKPRP | -0.225
RRIRGRPPRLPRPRPRPINSPRP | 0.134
RRIRDRPPRLPRPRPRPAIHPRP | 0.00344
RRIRNRPPRLPRPRPRPWQKPRP | -0.18
RRIRRRPPRLPRPRPRPTFRPRP | 0.0132
